Data published in patent US5541078.

Molecular target: synthetic peptide 89-122 of Eg 6 (Echinococcus granulosus)
Assay: ELISA on bound peptide, ascites diluted to 1/100 (control)

myeloma ascites (SP2/0) (polyclonal serum or antibody)
mean of the optical densities (optical density): 0.12
